Data from paper doi:10.1101/2025.07.23.666440.

Molecular target: PANA_2924 C-terminal domain after TEV cleavage of the His-TEV tag (Pantoea ananatis LMG 20103) (UniProt D4GKQ2)
Assay: SEC

PANA_2923 immunity protein (natural protein)
stoichiometry N: 1
